Test results published in patent publication EP2308896A1 (Sanofi-Aventis, dated 2011).

Molecular target: hRAGE (human, UniProt Q15109 23-342, limits assumed)
Test: competition ELISA, hRAGE-S100B interaction

hRAGE, sequence (Q15109 23-342 limits assumed): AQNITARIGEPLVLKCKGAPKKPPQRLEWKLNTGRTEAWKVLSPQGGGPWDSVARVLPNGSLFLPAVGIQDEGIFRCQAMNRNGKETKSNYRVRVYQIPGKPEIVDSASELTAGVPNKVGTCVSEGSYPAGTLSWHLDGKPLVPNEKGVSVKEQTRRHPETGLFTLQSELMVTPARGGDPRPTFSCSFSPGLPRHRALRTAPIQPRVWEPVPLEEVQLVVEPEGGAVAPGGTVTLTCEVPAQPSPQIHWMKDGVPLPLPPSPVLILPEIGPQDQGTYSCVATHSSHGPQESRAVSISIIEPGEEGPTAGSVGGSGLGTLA

- IC50: 0.72 nM
B1: 158 RAGE-1 (antibody, V domains shown)
VH: QIQLVQSGPELKKPGETVKISCKASGYTFTDYSMHWVKQAPGKGLKWMGWINTETGEPTYADDFKGRFAFSLETSASTAYLLINNLKTEDTATYFCARDYLYYYAMDYWGQGTSVTVSS
VL: DVVLTQTPLSLPVNIGDQASISCKSTKSLLNSDGFTYLDWYLQKPGQSPQLLIYLVSNRFSGVPDRFSGSGSGTDFTLKISRVEAEDLGVYYCFQSNYLPLTFGGGTKVEIK
notes: Anti-RAGE monoclonal antibody (hybridoma; captured by anti-mouse Fc in Biacore); also called LP08105
